Measurements reported in the nanobody polyreactivity screen of Harvey et al. (2022).

Assay: yeast display, Sf9 membrane polyspecificity reagent, FACS + sequencing; frameworks hold sequencing errors
Method in brief: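 In a synthetic yeast display library (Saccharomyces cerevisiae BJ5465), nanobody expression was induced with galactose for 36–48 hours. FACS gates were set low and high (top ~1%) using anti-HA fluorescence for expression and streptavidin fluorescence for binding of the Sf9 membrane reagent. Each polyreactivity label is drawn from the gate of origin.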

Sequence | polyreactivity (PSR sort gate)
QLQLVESGGGLVQAGGSLRLSCAASGSTSVTNAMGWYRQAPGKEREFVATINYSGTSTYYADSVKGRFTISRDNAKNTVYLQMNSLKPEDTAVYYCNAHDFGFYRFSLPGYDYWGQGTQVTVSS | low polyreactivity
QVQLVESGGGLVQAGGSLRLSCAASGSIFNAYDMGWYRQAPGKERELVAGISSSDSTYYADSVKGRFTISRDNAKNTVYLQMNSLIPEDTAVYYCAADPVFAAAYIHLYGIYDSWGQGTQVTVSS | low polyreactivity
QVQLVESGGGLVQAGVSLRLSCAASGSIFDVYAMGWYRQAPGKERELVATISYGDSSTYYADSVKGRFTISRDNAKNTVYLQMNSLKPEDTAVYYCAADYLTAPRWRQWGEMDYWGQGTQVTVSS | low polyreactivity
QVQLVESGGGLVQAGGSLRLICAASGNIFTTYAMGWYRQAPGKERELVAAISRTGGRTSYADSVKGRFTISRDNAKNTVYLQMNSLKPEDTAVYYCAAVPTVRPSAPRARILSDYWGQGTQVTVSS | high polyreactivity
QVQLVESGGGLVQAGGSLRLSCAASGFIFPYFAMGWYRQAPGKERELVAAISGSGGSTYYADSVKGRFTISRDNAKNTVYLQMNSLKPEDTAVYYCAASARRLNMGYWGQGTQVTVSS | high polyreactivity
QVQLVESGGGLVQAGGSLRLSCAASGRTLVPYAMGWYRQAPGKERELVAAINSSGGSTYYADSVKGRFTISRDNAKNTVYLQMNSLKPEDTAVYYCAATRYSKYYWGQGTQVTVSS | high polyreactivity
QVQLVESGGGLVQAGGSLRLSCAASGFIFWSYAMGWYIQAPGKERELVAAINTSGDSTYYADSVKGRFTISRDNAKNTVYLQMNSLKPEDTAVYYCAAKSSTRGDYWGQGTQVTVSS | low polyreactivity
QGQLVESGGGLVQAGGSVRLSCAASRITLGSNAMGWDRQAPGKERELVAAITSGSSTYYADSVKGRFTISRDNAKNTVNLQMNSLKPEDTAVYYCAADPTSYSYEYNYWGQGTQVTVSS | low polyreactivity
QVQLVESGGGLVHAGGSLRIICAASGRIFYIYAMGWYRQAPGKERELVAAITKSGGSTTHYADSVKGRFTISRDNAKNTVYLQMNSLKPEDTEVYYCAVDARYSRSKYGYWGHGTQVTVSS | high polyreactivity
QVQLVESGGGLVQAGGSLRISCAASGRIFRGYAMGWYRQAPGKEMELVAGITTSGGDTSYADSVKGRFTISRDNAKNTVYLQMNSLKPEDTAVYYCNASPFYYRPRYPMDYWGQGTQVTVSS | high polyreactivity
QLQLVESAAGLFQAGVSHRLSCDASGSTLSQNSMGGYRQAPGKEREFVADISGSGDSTYYADSVKGRFTISRDNAKNTVYLQMNSLKAEDTAVYYCATPSPHVGLKWEYDYWGQGTQVTVSS | low polyreactivity
QVQLVESGGGLVQAGSSLRLSCAASGSTFVNNAMGWYRQAPGKERELVAAITSGGSTNYADSVKGRFTISRDNAKNTVYLQMNSLKPEDTAVYYCNADGDSWYTGIPAVSHGYWGQGTQVTVSS | low polyreactivity
QVQLVESGGLLVQAGGSLRLSCAASGRIFTHNATGWYRQAPGKERELVAAISYSGVSTYYADSVKGRFTISRDNAKNTVYLQMNSLKPEDTAVYYCARRYWYPDAFYRYDYWGQGTQVTVSS | low polyreactivity
QVQLVESGGGLVQAGGSLRLSCAASGRTFKNNAMGWYRQAPGKERELVAAISSNGGSTYYADSVKGRFTISRDNAKNTVYLQMNSLKPEDTAVYYCAADRTIVEYYYWGQGTQVTVSS | high polyreactivity
QVQLVESGGGLVQAGGSLRLSCAASGYTFASYDMGWYRQAPGKERELVAAIDWSGGSTYYADSVKGRFTISRDNAKNTVYLQMNSLKPEDTAVYYCAAERPWTYGSDGMDYWGQGTQVTVSS | low polyreactivity
QVQLVESGGGLVQAGGSLRLSCAASGRIFLYYAMGWYRQAPGKERELVATISSGGSTTYADSVKGRFTISRDNAKNTVYLQMNSLKPEDTAVYYCATQVPGYSGRYDYWGQGTQVTVSS | low polyreactivity
QVQLVESGGGLVQAGGSLRLSCAAPGSIFYPNAMGWYRQAPGKEREFVAAITKRGGSTYYADSVKGRFTISRDNAKNTVYLQMNSLKPEDTAVYYCAGERSYPRAGRYNYWGQGTQVTVSS | low polyreactivity
QVQLVESGGGLVQAGGSLRLSCAASGRIFYSYAMGWYRQAPGKERELVAAITDSGGSTYADSVKGRFTISRDNAKNTVYLQMNSLKPEDTAVYADSTYNWYYYYWGQGTQVTVSS | low polyreactivity
QVQLVESGGGLVQAGGSLRLSCAASGSTFTAYAMGWYRQATREDRELVARIGGTYYADSVKGRFTISRDNAKNTVYLQMNSLKPEDTAVYYCAAEYGYDFFRSYQEYGYWGQGTQVTVSS | low polyreactivity
QVQLVESGGGLVQAGGSLRLSCGASGSTFAINAMGWYRQAPGKERELVAAINWSGTTTYYADSVKGRFTISRDNAKNTVYLQMNSLKPEDTAVYYCNARYYVLRGYDYWGQGTQVTVSS | low polyreactivity
QVQLVESGGGLVQAGGSLRLSCAASGSIFLYYAMGWYRQAPGNERELVAGINRVGSTNYADSVKGRFTISRDNAKNTVYLQMNSLKPEDTAVYYCNKRATRSRRRGYWGQGTQVTVSS | low polyreactivity
QVHLVESGGGLVQAGGSLRLSCAATGLTFHKYAMGWYRQSPGKERELVAAISSSGGSTYYADSVKGRFTISRDNAKNTVYLQMNSLKPEDTAVYYCATRLPYYTHAGYNYWGQGTQVTVSS | high polyreactivity

Sequence | polyreactivity (PSR sort gate)
QVQLVESGGGLVQAGGSLRLSCAASGIIFGYYAMGWYRQAPGKERELVAAISSIGGSTYYADSVKGRFTISRDNAKNTVYLQMNSLKPEDTAVYYCNAASSRWPEYDYWGQGTQVTVSS | high polyreactivity
QVHLVESGGGLVPAGGSLRLTCAASGSTLWFNAMRWYRQAPGKERELVAAISFYSGSTYYSDSVKGRFTISRDNANNTVYLQMNSLKPEDTAVYYCAARRRWWGYDYWGQATQVTVSS | high polyreactivity
QVQLVDSGGGLVQAGATLRLSGAASGRIFGCNAMGWYRQAPGKVRELVAAISNGGSTYYADSVKGRFTISRDNAKNTVYFQMNSLKPEDTAVYYCNAAARIGYARRFYYWGQGTQVTVSS | high polyreactivity
QVQLVDSGGGLVQAGGSLRLSCAASGFTFADNAMGWYRQAPGKEREFVAAITWTADSTYYADSVKGRFTISRDNAKNTVYVQMNSLKPEDTAVYYCAASYSTIWTLYYYWGQGTQVTVSS | low polyreactivity
QVQLVETGGGLVQAGGSLRLSCAASGLTFRGYAKGWYIQAPGKERELVARITIGSSTNYADSVKGRFTISRDIAKNTVYLQMNSLKQEDSAVYYCAADKPGQFTPSYNKIYDYWGQGTQVTVSS | low polyreactivity
QFQLEESGGGLVQAGGSLRLSCAASGSTFWYNAMVWYIQATGKEMELVAAISSSGGSTYYADSVKGRFTISRDNAKYTVYLQMNSLKPEDSAVYYCNTRYVYTRGGTLKRDYLGQGTQVTVSS | high polyreactivity
QVQLVESGGGLVQAGGSLRLSCAASGNIFVAYPMGWYRKATGKERELVAVISNGGRTYYADSVKGRFTISRDNAKNTVYLQMNSLKPEDTAVYYCATVAHASYGWHNYWGQGTQVTVSS | high polyreactivity
QVQLVESGGGLVQAGGSLRLSCAASGSIFWYYAMGWYRQAPGKERELVARITFSGSRTHYADSVKGRFTISRDNAKNTVYLQMNSLKPEDTSVYYCATDTVYGNDYWGQGTQVTVSS | low polyreactivity
QVQLVESGGGLVQAGGSLRLSCAASGFIFYSNAMGWYRQAPGKERELVAGISRGGSTYYADSVKGRFTISRDNAKNTVYLQMNRLKPEDTAVYYCAAKISLGDDYWGQGTQVTVSS | low polyreactivity
QVQLVESGGGLDQAGGSLRLSCAAYGSTFAPNAMGGYRQSPGKERELVAAISSGSSTYYADSVKGRFTISRDNAKNTVNLQMNSLKPEDTAVYYCIARGLSSLSTIEDYCGQGTQVTVSS | high polyreactivity
QVQLVESVGGLVQAGGSLRLSCAASGSTFAANAMGWYRQAPGKASELVAAITSVGTTYYADSVKGRFTISRDNGKNTVYLQMNSLKPEDTEVYYCNAEYGVWYDYLVVPYDYWGQGTQVTVSS | low polyreactivity
QVQFVDSGAGLVQAGGSLRLSCAASGSTLTTNAMGWYRQAPGKERELVAAISWRGGPTYYADSVKGRFTISRDIAKNTVYLQMNSLKPEDTAVYYCAADYTRSAYDYWGQGTQVTVSS | high polyreactivity
QVQLVESGGGLVQAGGSLRLSCAASGIIFRGNSMGWYRQAPGKERELVAAIRFSGGSTYYADSVKGRFTISRDYAKNTVYLQMNSLKPEDTAVYYFAATRRRYGSTTSEYYYWGQGTQVTVSS | high polyreactivity
QVQLVESGGGLVQAGGSLRLSSADSGLTIKYYAMGWYRQAPGKERELVASILQSGSSTYYADSVKGRFTISRDYAKNTFYLQMNSMKPEDTAVYYCSAPRYCRSYGYDYWGQGTQVTVSS | high polyreactivity
QVQLVESGGGLVQAGGSLRLSCAASGYTFSWYAMGWYRQAPGKERELVAGIDTSGGSTYYADSVKGRFTISRDNAKNTVYLQMNSLKPEDTAVYYCAAGLLWYSWGFWYYEYGYWGQGTQVTVSS | low polyreactivity
QVQLVESGGGVGQAGGSLRLSCAASGSTFDRYTMGWYRQAPGKERELVAAISISGGSTYYADSVKGRFTISRDNAKNTVYLQMNSLKPEVTEVYYCAARLDTVTDYYYWGQGTQVTVSS | low polyreactivity
QVQLVESGGGLVQAGGSLRLSCAASGNTFLRNTMGWYRQAPGTERELVAAISWGGGTTYYADSVKGRFTISRDNAKNTVYLQMNILKPEDTAVYYCNARYYSRRGNSWGQGTQVTVSS | high polyreactivity
QVQLVESGGGLVQAGGSLRLSCAASGYILTHYAMGWYRQAPGKERELVAAITRVGNTNYADSVKGRFTISRDNAKNTVYLQMNSLKPEDTAVYYCAADGVASLFGDPPTEFDYWGQGTQVTVSS | low polyreactivity
QVQLVESGGGLVQAGGSLRLSCAASGSIFSGYAMGWYRQAPGKERELVAAITWRAASTYYADSVKGRFTISRDNAKNTVYLQMNSLKPEDTAVYYCAKEGGPKPAFYYWGQGTQVTVSS | low polyreactivity
QVQLVESGGGLVQAGGSLRLSCAASGRTFLVYSMGWYIQAPGKERELVAAISFSDGITYYADSVKGRFTISRDNAKNTVYLQMNRLKPEDTAVYYCATEILDYYYGSEYDYWGQGTQVTVTS | high polyreactivity
QVQLVESGGGLVQAGGSLRLSCAASGRTFLVYVMGWYRQAPGKERELVASITYSGGSTYYADSVKGRFTISRDNAKNTVYLQMNSLKPEDTAVYYCAAAQGRQPYRARGLYYYWGQGTQVTVSS | high polyreactivity
